Results reported in patent US20220356247A1 (NANJING IMMUNOPHAGE BIOTECH, published 2022).

target: T1, human ROR1 (human, UniProt Q01973 30-403, limits assumed); experiment: affinity for human ROR1, method not stated
T1 construct: also called receptor tyrosine kinase-like orphan receptor 1
T1 sequence (Q01973 30-403 limits assumed): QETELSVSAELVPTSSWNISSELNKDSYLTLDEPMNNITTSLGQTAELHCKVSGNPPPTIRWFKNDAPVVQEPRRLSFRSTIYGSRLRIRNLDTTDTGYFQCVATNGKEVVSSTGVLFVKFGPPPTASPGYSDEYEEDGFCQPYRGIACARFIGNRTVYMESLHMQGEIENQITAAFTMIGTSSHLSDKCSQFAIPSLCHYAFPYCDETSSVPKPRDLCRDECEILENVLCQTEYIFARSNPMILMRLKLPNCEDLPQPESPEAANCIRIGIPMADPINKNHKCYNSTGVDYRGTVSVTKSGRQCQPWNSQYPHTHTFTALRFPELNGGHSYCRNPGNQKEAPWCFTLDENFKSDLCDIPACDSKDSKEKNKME

| Binder | Kd [nM] |
| --- | --- |
| anti-ROR1 antibody clone C3 (antibody, V domains shown, Fully human clone from a naive phage library) VH: QVQLQESGPGLVKPSETLSLTCTVSGGSISSYYWSWIRQLPGKGLEWIGYMHYSGSTSYNPSLKGRLTISVDTSTNQFSLKLGSVTAADTAVYYCARYYYHDSSGYYSYFDYWGQGTLVTVSS VL: EIVLTQSPGTLSLSPGERATLSCRASQSVSSYLAWYQQKAGQAPRLLIYDASNRASGIPARFSGSGSGTDFTLTISSLEPEDFAVYYCQQRSNWPPTFGGGTKVEIK | 3.25 |
| anti-ROR1 antibody clone G3 (antibody, V domains shown, Fully human clone from a naive phage library) VH: QVQLQQWGAGLLKPSETLSLTCAVYGGSFSGYYWSWIRQPPGKGLEWIGEINHSGSTSYNPSLKSRVTISVDTSKNQFSLKLSSVTAADTAVYYCARGHSSGWYRRYFDLWGRGTLVTVSS VL: EIVLTQSPATLSLSPGERATLSCRASQSVSSYLAWYQQKPGQAPRLLIYDASNRATGIPAKFSGSGSGTDFTLTISSLEPEDFAVYYCQQRSNWPPTFGGGTKVEIK | 4.48 |
| anti-ROR1 antibody clone G6 (antibody, V domains shown, Fully human clone from a naive phage library) VH: EVQLVESGGGVVQPGGSLRLSCAASGFTFDDYAMHWVRQAPGKGLEWVSLISGDGGSTYYADSVKGRFTISRDNAKNSLYLQMNSLRAEDTAVYYCARDNWNDVYYYYGMDVWGQGTTVTVSS VL: DIQLTQSPSSLSASIGDTVTISCQASRDISDYLNWYQHKPGKAPKLLIYDASNLATGVPSRFSGSGSGTDFTLTIKSLQPEDVATYFCQQDDLLPLTFGGGTKVDIK | 43.7 |
